47 sequences from the NTF2 design screens of Basanta et al. (2020) can be followed below.

This data set in a line: protease stability score; higher = more stable; yeast display proteolysis, trypsin and chymotrypsin.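 Also: log10 excess protease needed over predicted unfolded state with 0 meaning unfolded.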
As for “DDHALERLRSLNHIEDDGNEEKVEEMLDPNATVEVGDKRYHGSHHYVDHVRQRKEKQRYSQQFKHFHREPGRIVVHATAKFQVNGKPFKYTLTQVARLSNGKFTDIKVDVPERLKEQRQQ”, the protease stability score was -0.258. To “DDDALRRLEELWSALEEGDESRVNRNIDPNARLKIGDTTIHGREKLAESLVRDWKEIKLEIEFKTLEAHNGQARLEAIEHFRINGRPEQINFRMQMHQRNGNVDEIVIEMDPDQQRKKES” belongs -0.133; to “DHEAEKRWTKLQEAIKYNNPQEAKHQMDPNARVRVGDKEFHGMDDFAKYQLDHQRKIEVDRKVKKVDVKNGSVKVVQDVENNNNGTPSRHVMDLRVEVHNGHIRNVRAETDK”, -0.295. For “DEHKLKEFATRIMEAWEQGDPRKLEELMDPNARYIVGDKTLHGREEAKKRMEEFRKNVDHVEFTSVRAQNGHISITFVANVNGERETRVVDIKVDNGRVKNMDIKHK” the value was 0.7; for “DEHNMKLASRLVRAVQTNDPDQWVRNVDKNVRVQVGDKTVHGREEFHRQMEKKAREMRYEVQMDQVTVHGDKVRIDITERSNVNGRPHHKRAEMIVHVSNGKVQRVEVQDRK”, -0.162; for “DEENREVAERWLDALKRGDPKKANEQMDPNARLRVGNKTVHGREDFEQMIRKWQEHMSFSVETMTVQVEGNKIIIKATREVVVNGRPHKDTFEFEIEIQNGKIKEITIHFPEQELKEIED”, 0.815.

“DEQAKEHIEEWMKAVKTGDEHTLREMADENAHFEIGDKTLHGMREFVKEQAERFRNIRVSYKRIDIRVQGNKVTVVVRFVVQHDGRPDERTVTFVFTFHNGQIENMQVKDEQ” registered a protease stability score of 1.17.

The sequence “DEHEKQKKAKDAADLIRHNNPERVAELFDEDARVRVGDHTYHGREHIVRVLQTLVDQIDHMQLTDLDVHGETLRLHIVMQINGKKVDMQLDIELKNGKMKRMRFDPDRVRDVQK” yielded a protease stability score of 0.466. To “DQEAHRVFNEFIKAITTGNPDRARQLADPNARFQVGDKRYHGMERYASTLKQQQNKMTQSLRVRDVDVKGDKIKVDAQSEMNHNGQPRRSQHNIDVNIQGDKIKRVRYTDDK” belongs -0.454. To “EEETVKRMAEHVNHALQENDPKKMNDLFDENVQVDVGDTRIHGREDLTKYVKTFKQRVDQVEIQRVDVQGNTVVILMVLEHNGHRRQVVVIMHFHNGKVKEMRVTDK” belongs 0.097; to “DEEEVSRILKKVLTAVRKNDPDTLMRLADKNARFHYGDRTYRGREQARRWMEDVRTHADHARINSFTVTGNKARADIRFDINGEERRVDMVIVVHNGKIHDLVVEDR”, 1.3. To “DREERKKIAQTILKIFETGDHKKFKRQIDPNVEVVVGDRTYKGRTQATKAFNEIQEKVDEVDVKTVHYKGDHAIVDAVLVINGRRVTVYFHLTIHNGRVKSISMQFRDEEDERKFRG” belongs 0.367. Regarding “DEEVLHLADRWWEAVDRGNERQLKDNADPNVKVRVGDKTIRGRDQMAKEVRHRREEQRVNYHHFRQDVSGDKANVTVHYTREHNGKPETNVIEVVFQAHNGKIVSITVRHDG”, the protease stability score was -0.148. To “DEDAQELAEQLWTAWETGDPRQIQNLMDPNVNFRYGDKTFQGREHLHRLIKDIQENIRIDYRHYSVDVKGDKASIKINIQLHHDGKPETKTNDLTIHFSGDRIQRVEQNDRQ” belongs 0.248. For “DHRQQVRDIFKEMQDARRKGNEKTLQKLVDPNAKAEYGDKTYHGRENVAKMLLDEAKRVDHFEVHIKTFSIKNGTARVHADVVVKHDGQKRSTDVFYVFRDHNGQMLLVRARTQ” the value was 1.38; for “DDEQDKKAEKLVNTGNFHDMANNADPNARIVVGDKRFHGREQFHTFMESLQTTIDHLQIKDIKRRPNHVEADVVAEVNGRRITFVILMVVHNGRIKNVEFKFRDEEDERVMEQILR”, 0.947; for “DEEDRRKAKEAAERNDWKHFSDQMDEDVRVLVGDKRFHGREEAKQFVQKVEDRADTQSVDSVDVQGNQVDLDMKLNINGNDVRAQFEFYFHNGRIKEIKVTFTDPREERQFKELIK”, 1.25. For “DETNRKQASRVLENLQTGDPRQVSELVDPNARVTVGDKQVTGRENIMQRVKHELDQSRIQIDHYEIDDKGESADLRMTQQVDHNGNPTRTKYQVEVEAENGKIKEITIEERS” the value was -0.271. As to “EEHLKQTFKEYMENYRTGNEEQLHSMVDEEAKFSYGDKKIHGRTEAIKQLVRRREEMRWDVQIKDMEVHNGRIEVDARVRFKHNGQPDDQKVVFRAVIHNGRFKMISEQYQP”, the protease stability score is 0.376. For “DKSANHQIEQLMRNINEGDKDKVREQMDPNVEVHVGDKEVHGREQYAREVRKEQEEMRVQFKVEHVKDRNGQAELRIQVQLDHNGKPETRVQHFVAVLDNGRVKSATAKIDK” the value was -0.084; for “DEKEDLTRWIEQFVHNLEHGDEERLSQLADPNARFKYGDRTLHGMENAIKTLADVMRRVDQVRIRINDITHHENRVIVDLSFVLNHNGQERHYNAKMVAYIHNGTFRIETASMK”, 0.929. To “DDEAQKLAEDYLTALQNNNPDKVIELLDPNARAEYGDKTYHGREQIHHFLRQFHKQARLQFTSYDVEVKNGQARLHMRVQVNHNGEPSQYEASIRISVHNGRMKEVQLQWSN” belongs 1.58; to “DEKESADRMIQRLQELMDQNNEEEIKNEVDENARAVVGDKEYHGDEQFAKALITVVKQYDHISIQIRSFTHTNGKNVATFEATFHHNGKNDTVKIEVVFDEVNGRHNLVRLVMK”, 1.22. For “DEEEQQKVADKIVEVLKSGNPDEMMKLADENVRAQVGDKTYHGREELKKWMKEVRDRVDRIRVETWEVHNGTVNIIVRMDVDGQTLTLTITANIHNGRIKQIVIEYRDDDELRKAQK” the value was 0.729. Regarding “DEEREAKEWMELFEDQFRQGNEHEVNKLMDKDARIHVGEKHVSGRNQAKKELKEHMKRADHIHIQLHEVDSRPGRMILDFTINQQVNGRRSSDKVRARFSKRNGRWYQESETQG”, the protease stability score worked out at 0.104.

“DEEKEDKLLLKFARVVLQNNPEDLTRLMDPNAHLEVGDQTWHGREQVSDVLSKFAKRVDEVEVEDYDKRGNDLKVVMTLNINGKNIKVNLTFVVSNGRVTNVRLDPEAQKKIEK”: the protease stability score was found to be 0.37. On to “DEEQAKTVMEEWAKAVQKGNTEKLKKLYKPDVEWKNGDKKNQGVDQVETQVKKAKDQGVEFQVRKAEVKGNRVRVVYDAKVGDKTVTFTVEFDVDGGKIERVRVEVDEEAKKVQKQG”, for which the protease stability score was determined as 0.322. To “DEEDKKKLNHTVANVIQHGDEKQARRLMDPNVKVVIGDKTYNGRHKATEALKTLRDRADEIRVHDFRLEGDHINIIIELHINGQQTTLEIEVQFSGDKIKSVVFKTR” belongs 0.795. For “DETALRIAEDWFRALQNGNPERMQENVDPNARVQIGDKELHGREQIHELAQKIKEEMRIEVNITHVDVHGEHLRLEFDIRVDINGKPVTNHNTAEFNVENGSIKHISFDIDPRQLNKMQK” the value was 0.746; for “DSEKIKDVARQLVRQIEENNPDEIVKLLDPNARADYGDKRISGHEKIADELRKFHERADRIRVETVEVHNGRIVIDLHVNINGRMQRFHVFADLHNGKIKRIEFQTG”, 1.54; for “DEEDESRHAEIAIRALAQGDEEELRRQVDPNARVRIGEFNVHGREAAHKAVKTLQEEFDHVDLTHVTTRGEKARVDVKYKKNGKEVTFQLEAKVHDGKVKELQMEKG”, -0.241. For “DEDEEETLAQTWIKLMETGDPEQNMENVDPNVKVTYGDKTLHGREQFSDWEKKLHERVDRIEIKKMDVHNGSIRIVVVNDVNGKTKRFVVHLIYENGRLKSAKETDQ” the value was 0.413; for “DTELTHELSHRIKDNNWEDLSKNADENVEFRVGNKEYHGKEEFQHLQENLKRQIDDVKIHSLTAQGDHLEADVVYNVNGRDLRFTFHMTVRNGKIKEMNASFRDESQVNTMLTVLN”, -0.238.

In turn, “DNDRVRKAHKLMRVIETGDPDKVNEYVDPNVHVEYGDKTIHGREELKKFIEKERHEMRVELKRVSADATGNKVDIKVHRVLDKNGKPETNNVRIIIVWDGNKIKSVSFQKDK” showed a protease stability score of 0.849. To “SEERAKKVAKKLMEAFVKGNKDDAKDALQEDVQLHIAGTTYHGPKAVEKLIEFWQRVGVEVKVQEVRVKGNHVEIQTQVHLGDNTTTVRYKIQVEGDKVKKLQLNFSEEVFKQAKDG” belongs 1.76; to “DEELQEEIEKFWKQLEFGNEDSLEKLMDPNAEMRVGDHTLHGRDSIAKELRRRQEEQRVDIHSYKLSAHNGRVTVNIDATFNHNGNPDRKIQRASLEISNGKLKRMDVRDEQ”, -0.046.

“DDSDVNQAQTIWKHWQQGNFREIAKNADPNVKINVGDKQYHGREEYESDMQEHRNQIRVKITSMSQNKNGDKAVVDAVIVNEENGEPEEKRFVWYIKAHNGRIVSFRVEDEK”: the protease stability score came out at 0.176. For “DEERVRQIADKMFKAIISGNSKDVQQVVKPNIQYEYGDEKYQGPKVVDQLVKVVKKIGAEVREREKTVHGDTMTAVFQYHKGDTTVQTEAEVKYEGDKAKRLRVKLSEEAQKVIKQG” the value was -0.114; for “DNEKALERAEEAARAVARGNEDELRKLAPPDVSAQYGDHRINGMDQVVEQIKEMRRAVDHIKIQTIRKNGNSVTLTVELTYNGQQMHMHVEVEVHNGELKHVRMHVTDEERWRRQES”, 0.855; for “DEEDANRHVREFWKNVETGNEDDLRDLADPNARLFVGDKKYRGRSEMAKAFKEIRKNVDHFELKSVQEKGDKVKVVAVWNHNGRNVEMVVIFVAHNGRIKEVQVRHK”, 0.233. To “DERDADKVRQLYENEQHGDEHKVMQLVDKDVRFQYGDHEVQGREQQKKLVKERQDKARFELKSVDARDHNGRVRVDVRWVAEVNGRPHEDTIEVVVEIHNGKVKHVEFRVDPDHWTEVMQ” belongs 0.152; to “DEEAIKQAKKLLDALRTGDEETLKEMIDPNARIHVGDKEVHGREEAAEQWQRRQEEQSMDWKVKSVENTNGRAEFRATATRRHNGQPDHFDFTWRVQAHNGRVKHMQVETRG”, -0.262; to “DEKKLLEIAKEVADYVRNGNADQVAKLGKEGIQANFGDEQVNGPDQMREYVKKVKDLGLHAEYKEEKYEGDTVELHTQAHLGDVTADFTVTYIVKGDKLDKVEVRFNKEQMKKFKTS”, 0.007. For “DQDQMRKAEQAMRAEQKNNKEELDELFDPNVEVEVGDFNVEGREEMNKEVDDLKKQARFHWSLHHVEVRGNRMHFKLRFEIQVNGQPRKNTANVEIEAHNGKFTSKTNRIDPRFVKTLLG” the value was 0.55; for “DQEEAKEVAEKVMKAVENGDEKKLKDLIDEGVKYEVGDTQQHGPEVAVKVVQYLQKKGVRLEFKEVQHHGNQVHTKIEYQNGDETDTVEATAEVKGGKIDQVQIHASETVVKWIKHG”, 0.088; for “DSEKNEALQRAVEIWNSNDPDKLKKQFDPNARHTYGDTVVHGRENLARRLEQLKRESRLTFQVTHLDVHNGKVTADVTIVEEHNGKPDTKRMDVQANVQNGRFKSVYVHESS”, -0.003.

“DTEERAEDFMHIMQNAATHGDPNIQRHLADKHVRVEVGDKTVSGREEHKTEFDKRVKQYDSISVNMRKMEIDGDKARFNVEERYNTNGRNQHHDVKQQAIVQGDKVHLDRVDNK”: the protease stability score was -0.603.
